Data on two molecules can be found in patent publication US20180273614A1 (GALAPAGOS, published 2018).

One assay concerns the target T1, murine IL-17C (mouse, UniProt Q8K4C5 17-194, limits assumed).
T1 construct: Endogenous IL-17C in paraffin sections of ear skin of BALB/c mice (IHC); also called IL-17C (mouse skin)
T1 sequence (looked up): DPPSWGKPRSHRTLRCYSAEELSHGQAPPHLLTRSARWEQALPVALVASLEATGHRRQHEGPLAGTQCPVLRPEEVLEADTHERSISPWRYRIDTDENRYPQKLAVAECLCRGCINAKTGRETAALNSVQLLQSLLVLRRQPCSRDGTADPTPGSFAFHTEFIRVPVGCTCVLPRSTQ
The assay can be described thus: IHC on paraffin sections of mouse ear skin (MC903 model), biotinylated antibody. The method, then: (§1) 4 μm-thick slices from paraffin-embedded skin biopsies from healthy subjects and subjects with atopic dermatitis were analyzed by IHC. Staining for IL-17C expression was performed with biotinylated MOR22420 (and MOR03207 isotype control antibody). In brief, sections were deparaffinised, rehydrated and unmasked by heat epitope antigen retrieval. Endogenous peroxidase was blocked in BLOXALL™ Blocking Solution (Vector Laboratories) and non-specific binding was blocked with 2.5% Horse Serum Blocking Solution (Vector Laboratories). The primary antibodies were incubated for one hour at room temperature. Binding of MOR22420 biotinylated antibody and MOR03207 biotinylated antibody was detected by incubation with Avidin Biotin Peroxidase Complex (Vector Laboratories). The signal was developed using the peroxidase substrate diaminobenzidine tetrahydrochloride (Sigma). Mayer's hematoxylin (BDH) was used for counterstaining before dehydration and mounting of slides.
At sacrifice, samples form ear skin were collected and fixed in 4% formaldehyde before embedding in paraffin. […] Five fields per ear (high power field ×20) covering the whole ear from top to bottom were measured, and the 5 values were averaged per ear and per mice (left/right ear). […]

For another assay, the target named is T2, human IL-17C (human, UniProt Q9P0M4 19-197).
T2 construct: Endogenous IL-17C in paraffin sections of human skin biopsies (IHC); The background calls IL-17C a secreted homodimer; also called interleukin 17C
T2 sequence: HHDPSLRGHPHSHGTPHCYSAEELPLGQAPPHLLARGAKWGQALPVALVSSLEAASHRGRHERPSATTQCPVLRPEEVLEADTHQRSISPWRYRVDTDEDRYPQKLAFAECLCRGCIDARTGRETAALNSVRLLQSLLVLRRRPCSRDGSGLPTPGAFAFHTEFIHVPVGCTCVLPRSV
The assay can be described thus: IHC on paraffin sections of human skin (healthy and atopic dermatitis), biotinylated antibody, avidin-biotin-peroxidase detection. As to the method: as §1

B1: MOR12743 (antibody, V domains shown)
VH: QVQLVQSGAEVKKPGASVKVSCKASGYTFTSNFIHWVRQAPGQGLEWMGWISPYNGDTNYAQKFQGRVTMTRDTSISTAYMELSRLRSEDTAVYYCARESVYYGSDYGYNGMDIWGQGTLVTVSS
VL: DIELTQPPSVSVSPGQTASITCSGDNLGEEYVSWYQQKPGQAPVLVIYDDTKRPSGIPERFSGSNSGNTATLTISGTQAEDEADYYCASWDLWSVEVFGGGTKLTVLG
notes: Said to be disclosed and characterized in WO 2013/057241; also called anti-IL-17C biotinylated MOR12743 antibody; anti-IL-17C MORI 2743 antibody
Take B1: the binding result with murine IL-17C is given as “binds”.

B2: MOR22420 (antibody, V domains shown)
VH: QVQLVQSGAEVKKPGSSVKVSCKASGGTFSSYAISWVRQAPGQGLEWMGTIDPFFGKTYYAQKFQGRVTITADESTSTAYMELSSLRSEDTAVYYCARDVSSISYYFHEYYSDRFDYWGQGTLVTVSS
VL: DIALTQPASVSGSPGQSITISCTGTSSDVGGYEYVNWYQQHPGKAPKLMIYDDSYRPSGVSNRFSGSKSGNTASLTISGLQAEDEADYYCQSTDPHSTVVFGGGTKLTVLG
notes: also called biotinylated MOR22420; MOR22420 antibody
On to B2, for which, in the assay with human IL-17C, the binding result was “binds”.
